Substrate in data set [1]: O=P(O)(O)O[C@@H]1[C@H](O)[C@H](O)[C@@H](O)[C@H](O)[C@H]1O
Nature of the data set: malachite green phosphate release assay. The data set is classed as biochemical, Cicer arietinum. The settings on record: Mg2+ (optimum 5 mM; typical assay 3 mM MgCl2), 50 mM Tris-Cl pH 8, 37 °C. An excerpt: (§1) malachite green phosphate release assay on CaIMP

Substrate in data set [2]: O=P(O)(O)OC1O[C@@H](CO)[C@@H](O)[C@@H](O)[C@@H]1O
Nature of the data set: malachite green phosphate release assay. The data set is classed as biochemical, Cicer arietinum. Conditions: Mg2+ (optimum 5 mM; typical assay 3 mM MgCl2), 50 mM Tris-Cl pH 8, 37 °C.
From the text: as §1

B1: CaIMP (Cicer arietinum) (protein)
chain: MVDNDSHSEFLASAVEAAHKAGDVIRKAFYQTKHVQHKGTVDLVTETDKACEELIFNHLKELYPTHKFIGEETTAAFGTTELTDDPTWIVDPLDGTTNFVHGFPFVCVSIGLTIGKVPTVGVVYNPIINELFTAIRGQGAFLNGNPIKVSSQTELVSSLLATEAGTKRDKATLDASTDRINSLLYKVRSLRMSGSCALNLCGVACGRLDLFFETGFGGPWDVAGGAVIVREAGGVVFDPSGADFDITAQRVAASNPLLKDAFVDALRQTE
notes: full-length ORF (813 bp, 270 aa, ~30 kDa) in pET-23b NdeI/XhoI, E. coli BL21(DE3)
B1: in data set [1], the Km was 25.9 µM and the Vmax amounted to 4.86 µmol/min/mg. Besides, in data set [2], the Km came out at 16.7 µM and the Vmax was 5.61 µmol/min/mg.

The record behind these values is article PMC3871819, “Differentially expressed myo-inositol monophosphatase gene (CaIMP) in chickpea (Cicer arietinum L.) encodes a lithium-sensitive phosphatase enzyme with broad substrate specificity and improves seed germination and seedling growth under abiotic stresses” (Journal of Experimental Botany, 2013).
